Data as given in IntAct's records for PubMed 25946333.

B1: Nuclear envelope integral membrane protein 1 (Mus musculus), Q6ZQE4 (parent)
chain: MAGGIKVSVWSAVGPGPRCWGAGGGGGATWLLLVVAGCVVCGSADVNVVMLQESQVDMNSSQQFCYKNVLIPKWHDIWTRIQVRVNSSKLVRVTQVDNEEKLKELEQFSIWNFFSSFLKEKLNDTYVNVGLYSTKTCLKVEMIEKDTTYSVTVTRRFDPKLFLVFLLGLTLFFCGDLLSRSQIFYYSTGMSVGIVASLLIVIFMISKFMPKRSPIYVILVGGWSFSLYLIQLVFKNLQEIWRSYWHYLLSYILTVGFMSFAVCYKYGPLENERSINLLTWTLQLLGLGLMYSSIQIPHVAFALIVIALCTKNLEYPIHWLCSTYRRMCKASGKPVPPRLLTEEEYRIQGEVETQKALQELREFCNSPECSAWKTISRIQSPKRFADFVEGSFHLTPNEVSVHEQEYGLGSIFTQDEELSSEEEGSEYPTFTQNNFLT

Variants of: B1
Conditions: with ran_mouse Ran

| effect of a mutation on the interaction | Variant |
| --- | --- |
| disrupting interaction strength | S366A;S376A;S380A;S419A;S420A |
| disrupting interaction strength | S366E;S376E;S380E;S419E;S420E |
